Measured values published in paper PMC5153249.

Columns and labels:
Assay in all cases: EMSA
[1] = tested on: eIF3 WT (a/b/c/i/g) (Saccharomyces cerevisiae); conditions: Met-charged tRNAi, 30 mM HEPES-KOH pH 7.4, 100 mM KOAc, 3 mM Mg(OAc)2, 2 mM DTT, 1 mM GDPNP, 26 C, 2 h, native 4% THEM gel
[2] = tested on: eIF3 (a delta8) (Saccharomyces cerevisiae); conditions: mean of 2, Met-charged tRNAi, 30 mM HEPES-KOH pH 7.4, 100 mM KOAc, 3 mM Mg(OAc)2, 2 mM DTT, 1 mM GDPNP, 26 C, 2 h, native 4% THEM gel
[3] = tested on: eIF3 (a Box6) (Saccharomyces cerevisiae); conditions: mean of 2, Met-charged tRNAi, 30 mM HEPES-KOH pH 7.4, 100 mM KOAc, 3 mM Mg(OAc)2, 2 mM DTT, 1 mM GDPNP, 26 C, 2 h, native 4% THEM gel
[4] = tested on: eIF3 (c Box12-SPW) (Saccharomyces cerevisiae); conditions: mean of 2; Met-charged tRNAi; 30 mM HEPES-KOH pH 7.4, 100 mM KOAc, 3 mM Mg(OAc)2, 2 mM DTT, 1 mM GDPNP, 26 C, 2 h; native 4% THEM gel
[5] = tested on: eIF3 (a Box37) (Saccharomyces cerevisiae); conditions: mean of 2, Met-charged tRNAi, 30 mM HEPES-KOH pH 7.4, 100 mM KOAc, 3 mM Mg(OAc)2, 2 mM DTT, 1 mM GDPNP, 26 C, 2 h, native 4% THEM gel
[6] = tested on: eIF3 (c delta60) (Saccharomyces cerevisiae); conditions: mean of 2, Met-charged tRNAi, 30 mM HEPES-KOH pH 7.4, 100 mM KOAc, 3 mM Mg(OAc)2, 2 mM DTT, 1 mM GDPNP, 26 C, 2 h, native 4% THEM gel
[7] = tested on: eIF3 (g KLF) (Saccharomyces cerevisiae); conditions: mean of 2, Met-charged tRNAi, 30 mM HEPES-KOH pH 7.4, 100 mM KOAc, 3 mM Mg(OAc)2, 2 mM DTT, 1 mM GDPNP, 26 C, 2 h, native 4% THEM gel
[8] = tested on: eIF3 a/b/c sub-complex (Saccharomyces cerevisiae); conditions: mean of 2, Met-charged tRNAi, 30 mM HEPES-KOH pH 7.4, 100 mM KOAc, 3 mM Mg(OAc)2, 2 mM DTT, 1 mM GDPNP, 26 C, 2 h, native 4% THEM gel
[9] = tested on: eIF3 (c GAP85) (Saccharomyces cerevisiae); conditions: mean of 2, Met-charged tRNAi, 30 mM HEPES-KOH pH 7.4, 100 mM KOAc, 3 mM Mg(OAc)2, 2 mM DTT, 1 mM GDPNP, 26 C, 2 h, native 4% THEM gel
[10] = tested on: eIF3 (i Q258R) (Saccharomyces cerevisiae); conditions: mean of 2, Met-charged tRNAi, 30 mM HEPES-KOH pH 7.4, 100 mM KOAc, 3 mM Mg(OAc)2, 2 mM DTT, 1 mM GDPNP, 26 C, 2 h, native 4% THEM gel
[11] = tested on: eIF3 (a H725P) (Saccharomyces cerevisiae); conditions: mean of 2; Met-charged tRNAi; uncapped mRNA; 30 mM HEPES-KOH pH 7.4, 100 mM KOAc, 3 mM Mg(OAc)2, 2 mM DTT, 1 mM GDPNP, 26 C, 2 h; native 4% THEM gel
[12] = tested on: eIF3 (a R731I) (Saccharomyces cerevisiae); conditions: mean of 2; Met-charged tRNAi; uncapped mRNA; 30 mM HEPES-KOH pH 7.4, 100 mM KOAc, 3 mM Mg(OAc)2, 2 mM DTT, 1 mM GDPNP, 26 C, 2 h; native 4% THEM gel

In the case of 43S PIC (40S rRNA + Met-tRNAi), the Kd ([1]; mean of 43, 24, text <=38 nM, upper limit) is reported as 0.0335 µM, the Kd [2] is reported as 0.087 µM and the Kd [3] is reported as 0.035 µM. For the same substance, the Kd [4] was 0.0665 µM, the Kd [5] was 0.0595 µM and the Kd ([6]; upper limit) was 0.024 µM. It also gave a Kd ([7]; upper limit) of 0.0215 µM, a Kd [8] of 0.0925 µM and a Kd ([9]; upper limit) of 0.0265 µM. It also gave a Kd ([10]; upper limit) of 0.03 µM.
“48S PIC (40S rRNA + Met-tRNAi + AUG model mRNA)” was tested, and the Kd ([1]; mean of 2, uncapped mRNA) was 0.0375 µM, the Kd ([2]; uncapped mRNA) was 0.0885 µM and the Kd ([3]; uncapped mRNA) was 0.038 µM. It also gave a Kd ([5]; uncapped mRNA) of 0.0835 µM, a Kd [11] of 0.0625 µM and a Kd ([6]; uncapped mRNA) of 0.0465 µM. It also gave a Kd [12] of 0.05 µM, a Kd ([7]; uncapped mRNA) of 0.0525 µM and a Kd ([8]; uncapped mRNA) of 0.108 µM. It also gave a Kd ([9]; uncapped mRNA) of 0.038 µM and a Kd ([10]; uncapped mRNA) of 0.0485 µM.
